Reference: doi:10.1101/2025.08.19.670962 (2025)

B1: JIP3-GFP [not stated] / TMEM55B (in HEK293 wild type cells, Figure 4) [not stated] (parent complex)
chain 1: MMEIQMDEGGGVVVYQDDYCSGSVMSERVSGLAGSIYREFERLIHCYDEEVVKELMPLVVNVLENLDSVLSENQEHEVELELLREDNEQLLTQYEREKALRRQAEEKFIEFEDALEQEKKELQIQVEHYEFQTRQLELKAKNYADQISRLEERESEMKKEYNALHQRHTEMIQTYVEHIERSKMQQVGGNSQTESSLPGRRKERPTSLNVFPLADGTVRAQIGGKLVPAGDHWHLSDLGQLQSSSSYQCPQDEMSESGQSSAAATPSTTGTKSNTPTSSVPSAAVTPLNESLQPLGDYGVGSKNSKRAREKRDSRNMEVQVTQEMRNVSIGMGSSDEWSDVQDIIDSTPELDMCPETRLDRTGSSPTQGIVNKAFGINTDSLYHELSTAGSEVIGDVDEGADLLGEFSVRDDFFGMGKEVGNLLLENSQLLETKNALNVVKNDLIAKVDQLSGEQEVLRGELEAAKQAKVKLENRIKELEEELKRVKSEAIIARREPKEEAEDVSSYLCTESDKIPMAQRRRFTRVEMARVLMERNQYKERLMELQEAVRWTEMIRASREHPSVQEKKKSTIWQFFSRLFSSSSSPPPAKRPYPSVNIHYKSPTTAGFSQRRNHAMCPISAGSRPLEFFPDDDCTSSARREQKREQYRQVREHVRNDDGRLQACGWSLPAKYKQLSPNGGQEDTRMKNVPVPVYCRPLVEKDPTMKLWCAAGVNLSGWRPNEDDAGNGVKPAPGRDPLTCDREGDGEPKSAHTSPEKKKAKELPEMDATSSRVWILTSTLTTSKVVIIDANQPGTVVDQFTVCNAHVLCISSIPAASDSDYPPGEMFLDSDVNPEDPGADGVLAGITLVGCATRCNVPRSNCSSRGDTPVLDKGQGEVATIANGKVNPSQSTEEATEATEVPDPGPSEPETATLRPGPLTEHVFTDPAPTPSSGPQPGSENGPEPDSSSTRPEPEPSGDPTGAGSSAAPTMWLGAQNGWLYVHSAVANWKKCLHSIKLKDSVLSLVHVKGRVLVALADGTLAIFHRGEDGQWDLSNYHLMDLGHPHHSIRCMAVVYDRVWCGYKNKVHVIQPKTMQIEKSFDAHPRRESQVRQLAWIGDGVWVSIRLDSTLRLYHAHTHQHLQDVDIEPYVSKMLGTGKLGFSFVRITALLVAGSRLWVGTGNGVVISIPLTETVVLHRGQLLGLRANKTSPTSGEGARPGGIIHVYGDDSSDRAASSFIPYCSMAQAQLCFHGHRDAVKFFVSVPGNVLATLNGSVLDSPAEGPGPAAPASEVEGQKLRNVLVLSGGEGYIDFRIGDGEDDETEEGAGDMSQVKPVLSKAERSHIIVWQVSYTPE
chain 2: not shown

Variants of: B1
Test: co-immunoprecipitation (GFP IP, quantitative immunoblot); HEK293 wild type cells, lysed 24h post transfection; parent: 31; read off a plot

For chain 1 A895L, chain 1 E897K, which response is on record?
Its response is ~10 TMEM55B/GFP.
